Measurements published in publication PMC4390396.

Substrate: O=C(O)c1ccc(O)cc1
Test: cells, lysate or membranes

B1: E. coli UbiA (EcUbiA) (Escherichia coli K-12; R60A) (protein)
chain: MEWSLTQNKLLAFHRLMRTDKPIGALLLLWPTLWALWVATPGVPQLWILAVFVAGVWLMAAAGCVVNDYADRKFDGHVKRTANRPLPSGAVTEKEARALFVVLVLISFLLVLTLNTMTILLSIAALALAWVYPFMKRYTHLPQVVLGAAFGWSIPMAFAAVSESVPLSCWLMFLANILWAVAYDTQYAMVDRDDDVKIGIKSTAILFGQYDKLIIGILQIGVLALMAIIGELNGLGWGYYWSILVAGALFVYQQKLIANREREACFKAFMNNNYVGLVLFLGLAMSYWHF
Km: 3000 µM
